Patent US20220064321A1 (published 2022)

Key:
[1] = target: CD16a on effector cells NK92MI-CD16a (UniProt P08637 17-254, limits assumed); assay: cell-based or functional assay
[2] = target: T1, FcγRIIIa(V158) (Sino Biological Inc, 10389-H08C1) (UniProt P08637 17-208); assay: binding ELISA; His-tagged FcγRIIIa captured by anti-His antibody, IgG pre-complexed with goat F(ab')2 anti-human-κ (value in the text differs from Table 4)
T1 construct: also called Fc gamma receptor IIIa
Experimental: (§1) High protein binding Costar 96-well plates were coated with anti-His antibody (Genscript, A00186) (1 μg/ml, 100 μl/well) in a coating buffer (0.05 M sodium carbonate buffer, pH 9.6) overnight at 4° C. The wells were washed twice with PBS/0.05% Tween 20 (pH 7.4). The plates were blocked with 5% Non-Fat Milk Powder/PBS (pH 7.4) for 1.5 hours at 37′C. Plates were washed and FcγRIIIa (Sino Biological Inc, 10389-H08C1) (1 μg/ml, 100 μl/well) in PBS/0.05% Tween 20, pH 7.4 (assay buffer) was added to the plates. Antibodies were pre-incubated with goat F(ab′)₂anti-human-κ antibody (Sigma) at a 1:2 (w/w) ratio in assay buffer for 1 h to form complex to increase binding avidity. […] After a 2 h incubation, plates were washed and bound IgG was detected by adding horseradish peroxidase (HRP)) labeled goat F(ab′)2 anti-human IgG F(ab′)2 (Sigma). After a final 1 hour incubation, plates were washed and the substrate 3,3′,5,5′-tetramethyl benzidine (TMB) (InnoReagents) was added. The reaction was stopped by adding 1 M phosphoric acid, and the OD was measured at 450 nm using a microplate reader Spectra MAX I3 (Molecular Devices).

[3] = target: T1, FcγRIIIa(V158) (Sino Biological Inc, …); assay: binding ELISA; His-tagged FcγRIIIa captured by anti-His antibody, IgG pre-complexed with goat F(ab')2 anti-human-κ, HRP anti-human F(ab')2 detection
Experimental: as §1

Chain of CD16a on effector cells NK92MI-CD16a (P08637 17-254 limits assumed): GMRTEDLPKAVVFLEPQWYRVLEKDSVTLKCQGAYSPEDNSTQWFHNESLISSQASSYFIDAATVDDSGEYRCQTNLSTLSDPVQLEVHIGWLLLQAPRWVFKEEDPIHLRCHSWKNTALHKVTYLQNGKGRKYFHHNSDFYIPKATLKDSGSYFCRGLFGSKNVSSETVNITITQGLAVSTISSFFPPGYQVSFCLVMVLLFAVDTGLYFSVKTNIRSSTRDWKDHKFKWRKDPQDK
T1 sequence (P08637 17-208 F176V limits assumed): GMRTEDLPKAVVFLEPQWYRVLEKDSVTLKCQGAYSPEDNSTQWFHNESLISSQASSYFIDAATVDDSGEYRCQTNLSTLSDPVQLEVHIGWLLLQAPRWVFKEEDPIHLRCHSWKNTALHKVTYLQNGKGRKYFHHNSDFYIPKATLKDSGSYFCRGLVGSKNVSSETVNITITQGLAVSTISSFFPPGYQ

B1: anti-CD20 antibody MIL62 (antibody, human IgG1, kappa)
light: DIVMTQTPLSLPVTPGEPASISCRSSKSLLHSNGITYLYWYLQKPGQSPQLLIYQMSNLVSGVPDRFSGSGSGTDFTLKISRVEAEDVGVYYCAQNLELPYTFGGGTKVEIKRTVAAPSVFIFPPSDEQLKSGTASVVCLLNNFYPREAKVQWKVDNALQSGNSQESVTEQDSKDSTYSLSSTLTLSKADYEKHKVYACEVTHQGLSSPVTKSFNRGEC
heavy: not shown
modifications: N-glycans on the Fc region, not bisected by N-acetylglucosamine; core-fucosylated glycans 0.43% in the example batch (made in CHOK1-AF cells, Slc35c1 knocked out)
notes: In the FcγRIIIa ELISA the IgG was pre-complexed with goat F(ab')2 anti-human-κ antibody at 1:2 (w/w); also called MIL62 antibody; humanized anti-CD20 antibody of the present invention
- ADCC Target cell: Daudi, EC50 [1]: 0.0488 ng/mL
- ADCC Target cell: Raji, EC50 [1]: 0.00738 ng/mL
- EC50 [2]: 55 ng/mL
- EC50 [3]: 52 ng/mL

B2: GAZYVA® (obinutuzumab) (antibody, human IgG1, kappa)
light: B1 light
heavy: not shown
modifications: N-glycans on the Fc region, more than 76% bisected by GlcNAc; core-fucosylated glycans 48.03% in the example batch
notes: In the FcγRIIIa ELISA the IgG was pre-complexed with goat F(ab')2 anti-human-κ antibody; also called afutuzumab; GA101
- ADCC Target cell: Daudi, EC50 [1]: 0.111 ng/mL
- ADCC Target cell: Raji, EC50 [1]: 0.0143 ng/mL
- EC50 [3]: 113 ng/mL
